Consider three substances from patent US6492123.

The target in experiment [1] is hen egg lysozyme (hen) (UniProt P00698). As to the kind of experiment: phage ELISA, 50 µl phage supernatant, anti-M13 detection; background 0.1. Background: In an ELISA, binding on a coated surface is turned into a signal by an enzyme label.
Experiment [2] shares this target. As to the kind of experiment: BIAcore, HEL coated chip. In general terms: SPR reads the build-up and loss of mass on a sensor chip optically.

Sequence of UniProt P00698 (P00698 19-147 limits assumed): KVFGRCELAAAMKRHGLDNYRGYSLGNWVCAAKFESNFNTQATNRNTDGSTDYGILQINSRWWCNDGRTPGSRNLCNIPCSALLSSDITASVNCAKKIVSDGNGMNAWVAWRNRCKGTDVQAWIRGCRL

In the experiment with hen egg lysozyme (hen) [1], “NQ11/D1.3/0 bispecific diabody displayed on phage (pHEN1) (bispecific antibody)” displayed an absorbance signal of 2.8.

By koff is commonly meant the first-order rate constant of dissociation. Read a low koff as slow dissociation. chimaeric FabD1.3: in the experiment with hen egg lysozyme (hen) [2], the koff was 0.003 s⁻¹.

Turning to “construct VI bispecific NQ11/D1.3 diabody, 5-residue linkers (bispecific antibody)”, in the experiment with hen egg lysozyme (hen) [2], the koff was determined as 0.0022 s⁻¹.
